# From publication PMC5134428
# B1: Bowman Birk inhibitor (BBI) from soybean (natural protein)
# chain: DDESSKPCCDQCACTKSNPPQCRCSDMRLNSCHSACKSCICALSYPAQCFCVDITDFCYEPCKPSEDDKEN
# Biological target: trypsin from porcine pancreas (porcine) (UniProt P00761)
# UniProt P00761, sequence (P00761 9-231): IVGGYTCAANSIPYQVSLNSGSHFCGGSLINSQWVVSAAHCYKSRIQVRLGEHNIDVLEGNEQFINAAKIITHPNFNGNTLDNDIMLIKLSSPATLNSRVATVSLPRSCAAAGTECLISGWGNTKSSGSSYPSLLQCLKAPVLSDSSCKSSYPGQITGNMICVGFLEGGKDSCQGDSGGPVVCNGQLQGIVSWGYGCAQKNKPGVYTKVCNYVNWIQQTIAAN
binder,measurement,value
B1,"IC50 of inhibition of trypsin activity (cleavage of the Arg6-Cys peptide, read by fluorescence of dC12-AgNCs-peptide/GO at 635 nm; 37 °C, 20 min, 2.0 mM phosphate buffer pH 7.4)",3.6 ng∙mL^−1
